Test results from patent publication US20200069736A1 (WHITEHEAD INSTITUTE FOR BIOMEDICAL RESEARCH, published 2020).

Target: T1, murine Class II MHC molecules on wild-type C57BL/6 mouse B cells (mouse, UniProt P14434 24-256; P14483 28-265)
T1 construct: whole, on cells; Endogenous MHC class II on B cells immobilised on streptavidin beads through biotinylated anti-CD19; also called mouse MHC class II
T1 sequence (MHC II alpha, looked up): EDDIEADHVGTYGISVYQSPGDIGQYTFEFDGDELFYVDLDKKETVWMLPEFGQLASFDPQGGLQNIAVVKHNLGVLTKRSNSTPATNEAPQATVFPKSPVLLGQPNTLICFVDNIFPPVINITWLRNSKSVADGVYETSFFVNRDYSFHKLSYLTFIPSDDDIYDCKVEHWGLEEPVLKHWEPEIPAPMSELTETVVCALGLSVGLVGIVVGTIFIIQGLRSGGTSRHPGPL
T1 sequence (MHC II beta, looked up): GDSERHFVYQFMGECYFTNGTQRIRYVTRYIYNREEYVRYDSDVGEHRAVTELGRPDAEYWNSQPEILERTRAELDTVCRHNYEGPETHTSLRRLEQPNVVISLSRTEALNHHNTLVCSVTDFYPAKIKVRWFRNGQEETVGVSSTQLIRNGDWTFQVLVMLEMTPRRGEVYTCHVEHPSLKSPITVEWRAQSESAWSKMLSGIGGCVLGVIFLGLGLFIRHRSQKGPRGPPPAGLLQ
Experiment: B cell-red blood cell binding assay: B cells on magnetic beads, bound red cells detected by anti-hemoglobin immunoblot
Experimental: FIG. 25 is a diagram showing conjugation of single domain antibody to engineered red blood cells and cell type-specific targeting. (A) Mouse mature red blood engineered to contain 3G-myc-GPA on the cell surface were incubated with. Sortase with or without VHH7-LPETG (SEQ ID NO: 44): a single domain antibody with binding specificity for mouse MHC class II molecules and sortase motif complementary to 3G. […] (B) Either wild type mouse B cells (expressing MHC class II) or B cells derived from MHC class II knock-out mice were immobilized on magnetic streptavidin beads via biotinylated α-CD19 antibody, incubated with 3G-myc-GPA red blood cells or red cells that contained sortase-labeled VHH7-LPETG (SEQ ID NO: 44)-myc GPA on their surface, and washed. Immobilization of B cells in all experimental set-ups was tested by presence of CD19 in α-CD19 immunoblot and binding between B cells and red blood cells was evaluated by the presence of hemoglobin in the α-hemoglobin immunoblot. (C) Schematic for experiment shown in (B); LPETG: (SEQ ID NO: 44).
A B cell—red blood cell binding assay was performed as follows. B cells were isolated from either wild-type C57BL/6 mice or mice knock-out for MI-IC class II using Dynabeads Mouse CD43 (Untouched B cells) (Life Technologies) according to manufacturer's recommendations. […]

B1: 3G-myc-hGPA on the surface of mouse red blood cells, not labeled with VHH7 (other, human, not shown: small tags and cut ends)
chain (part 1 of 2): GGG
chain (part 2 of 2): LSTTEVAMHTSTSSSVTKSYISSQTNDTHKRDTYAATPRAHEVSEISVRTVYPPEEETGERVQLAHHFSEPEITLIIFGVMAGVIGTILLISYGIRRLIKKSPSDVKPLPSPDTDVPLSSVEIENPETSDQ
notes: mature; also called 3G-myc-GPA red blood cells; unmodified red cells
Question: Does B1 bind?
Answer: Result: no binding
